Laboratory results reported in US20220396620A1 (Takeda / Millennium, published 2022).

B1: M7-H6 humanized anti-CB1 antibody (antibody, human IgG1, kappa, V domains shown)
VH: QVQLVQSGAEVKKPGASVKVSCKASSYTFTRYWMNWVRQAPGQGLEWMGMIDPYDSETHYNQKFKDRVTMTRDTSTSTVYMELSSLRSEDTAVYYCARSQPRYYAMDYWGQGTSVTVSS
VL: DIQMTQSPSSLSASVGDRVTITCRASQEISGFLAWFQQKPGKAPKSLIYAASSLQSGVPSRFSGSGSGTDFTLTISSLQPEDFATYYCQQYSSYPYTFGGGTKLEIKR
B2: M7-H5 humanized anti-CB1 antibody (antibody, human IgG1, kappa, L234A L235A, V domains shown)
VH: QVQLVQSGAEVVKPGASVKLSCKASSYTFTRYWMNWVKQAPGQGLEWIGMIDPYDSETHYNQKFKDKAILTVDKSTSTAYMELSTLRSEDTAVYFCARSQPRYYAMDYWGQGTSVTVSS
VL: DIQMTQSPSSLSASLGDRVTLTCRASQEISGFLSWLQLRPDGTIKRLIYAASSLDSGVPSRFRGSWSGTDYTLTISSLQSEDFADYYCLQYSSYPYTFGGGTKLEIKR
B3: M7-H3 humanized anti-CB1 antibody (antibody, human IgG1, kappa, L234A L235A, V domains shown)
VH: QVQLVQSGAEVKKPGASVKVSCKASSYTFTRYWMNWVKQAPGQGLEWIGMIDPYDSETHYNQKFQGRATLTVDTSTSTVYMELSSLRSEDTAVYFCARSQPRYYAMDYWGQGTTVTVSS
VL: DIQMTQSPSSLSASLGDRVTLTCRASQEISGFLSWLQLKPGKTIKRLIYAASSLDSGVPSRFSGSWSGTDYTLTISSLQPEDFADYYCLQYSSYPYTFGGGTKLEIKR
B4: M7-H2 humanized anti-CB1 antibody (antibody, human IgG1, kappa, L234A L235A)
heavy: not shown
light: DIQMTQSPSSLSASVGDRVTLTCRASQEISGFLSWLQLKPGKAIKRLIYAASSLDSGVPSRFSGSWSGTDYTLTISSLQPEDFADYYCLQYSSYPYTFGGGTKVEIKRTVAAPSVFIFPPSDEQLKSGTASVVCLLNNFYPREAKVQWKVDNALQSGNSQESVTEQDSKDSTYSLSSTLTLSKADYEKHKVYACEVTHQGLSSPVTKSFNRGEC
B5: M5-H1 humanized anti-CB1 antibody (antibody, human IgG1, kappa, L234A L235A, V domains shown)
VH: QVQLVQSGAEVVKPGASVKISCKASGYEFSYYWMNWVKQAPGQGHEWIGQIYPGDGDTNYNGKFKGKATLTADKSTSTAYMELSSLRSEDTAVYFCARGREAAWFAYWGQGTLVTVSS
VL: DIQLTQSPSSLSVSVGDRATITCRASQSVSSFRYSYLHWYQQKPGKAPKLLIKYASNLESGVPSRFSGSGSGTDFTLTISSVQPEDFATYFCQHSWEIPFTFGQGTKLEIKR
B6: M5-H2 humanized anti-CB1 antibody (antibody, human IgG1, kappa, L234A L235A, V domains shown)
VH: QVQLVQSGAEVKKPGASVKVSCKASGYEFSYYWMNWVRQAPGQGHEWIGQIYPGDGDTNYNQKFQGRVTLTADTSTSTAYMELSSLRSEDTAVYFCARGREAAWFAYWGQGTLVTVSS
VL: DIQLTQSPSSLSVSVGDRATITCRASQSVSSFRYSYLHWYQQKPGKAPKLLIKYASNLESGVPSRFSGSGSGTDFTLTISSVQPEDFATYFCQHSWEIPFTFGQGTKLEIKR

Molecular target: T1, human cannabinoid receptor type 1 (CB1) (human, UniProt P21554 1-472)
T1 construct: DiscoverX cAMP Hunter CHO-K1 CNR1 Gi cells for cAMP and pERK assays; also called huCB1; huCB-1
Test: FACS on CHO-huCB-1 cells, single concentration 30 ug/mL

T1 sequence (P21554 whole entry): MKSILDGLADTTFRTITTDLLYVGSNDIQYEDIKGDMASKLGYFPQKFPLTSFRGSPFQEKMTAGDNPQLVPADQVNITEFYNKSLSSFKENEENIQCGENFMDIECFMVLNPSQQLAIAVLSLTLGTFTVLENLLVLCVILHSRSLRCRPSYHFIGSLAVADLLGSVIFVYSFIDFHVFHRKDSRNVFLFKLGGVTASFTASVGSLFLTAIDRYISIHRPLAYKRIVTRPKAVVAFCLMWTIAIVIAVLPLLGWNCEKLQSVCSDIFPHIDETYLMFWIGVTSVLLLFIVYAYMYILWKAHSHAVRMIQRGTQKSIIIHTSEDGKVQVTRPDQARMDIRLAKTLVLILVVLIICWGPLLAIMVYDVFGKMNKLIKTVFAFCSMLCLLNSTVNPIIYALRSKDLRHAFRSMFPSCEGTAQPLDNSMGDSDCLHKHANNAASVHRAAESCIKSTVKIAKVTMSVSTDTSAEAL

Binding result, binds:
B1, B2

Molecular target: T1, human cannabinoid receptor type 1 (CB1)
Test: flow cytometry, single point at 30 ug/mL antibody on CHO-huCB-1 cells

Binding result, binds:
B3, B4, B5, B6
